Measured values as given in paper doi:10.1101/2021.12.25.474155.

Target: NCAP (SARS-CoV-2) (UniProt P0DTC9)
Assay: EMSA

| Sequence | Kd [nM] |
| --- | --- |
| GGAUUAAAGGUUUAUACCUUCCCAGGUAACAAACCAACCAACUUUCGAUCUCUUGUAGAUCUGUUCUCUAAACGAACUUUAAAAUCUGUGUGGCUGUCACUCGGCUGCAUGCUUAGUGCACUCACGCAGUAUAAUUAAUAACUAAUUACUGUCGUUGACAGGACACGAGUAACUCGUCUAUCUUCUGCAGGCUGCUUACGGUUUCGUCCGUGUUGCAGCCGAUCAUCAGCACAUCUAGGUUUCGUCCGGGUGUGACCGAAAGGUAAGAUGGAGAGCCUUGUCCCUGGUUUCAACGAGAAAACACACGUCCAACUCAGUUUGCCUGUUUUACAGGUUCGCGACGUGCUCGUACGUGGCUUUGGAGACUCCGUGGAGGAGGUCUUAUCAGAGGCACGUCAACAUCUUAAA [F406] | 1.2 |
| GGCUGUGUGGCUGUCACUCGGCUGCAUGCUUAGUGCACUCACGCAGUAUAAUUAAUAACUAAUUACUGUCGUUGACAGGACACGAGUAACUCGUCUAUCUUCUGCAGGCUGCUUACGGUUUCGUCCGUGUUGCAGCCGAUCAUCAGCACAUCUAGGUUUCGUCCGGGUGUGACCGAAAGGUAAGAUGGAGAGCCUUGUCCCUGGUUUCAACGAGAAAACACACGUCCAACUCAGUUUGCCUGUUUUACAGGUUCGCGACGUGCUCGUACGUGGCUUUGGAGACUCCGUGGAGGAGGUCUUAUCAGAGGCACGUCAACAUCUUAAA [F323] | 29 |
